In IntAct's records for PubMed 34964704:

B1: Claudin-2 (Homo sapiens), P57739 (parent)
chain: MASLGLQLVGYILGLLGLLGTLVAMLLPSWKTSSYVGASIVTAVGFSKGLWMECATHSTGITQCDIYSTLLGLPADIQAAQAMMVTSSAISSLACIISVVGMRCTVFCQESRAKDRVAVAGGVFFILGGLLGFIPVAWNLHGILRDFYSPLVPDSMKFEIGEALYLGIISSLFSLIAGIILCFSCSSQRNRSNYYDAYQAQPLATRSSPRPGQPPKVKSEFNSYSLTGYV

Variants of: B1
Conditions: with ap2m1_human AP2M1, Q96CW1
Chain of ap2m1_human AP2M1, Q96CW1 (Q96CW1 whole entry): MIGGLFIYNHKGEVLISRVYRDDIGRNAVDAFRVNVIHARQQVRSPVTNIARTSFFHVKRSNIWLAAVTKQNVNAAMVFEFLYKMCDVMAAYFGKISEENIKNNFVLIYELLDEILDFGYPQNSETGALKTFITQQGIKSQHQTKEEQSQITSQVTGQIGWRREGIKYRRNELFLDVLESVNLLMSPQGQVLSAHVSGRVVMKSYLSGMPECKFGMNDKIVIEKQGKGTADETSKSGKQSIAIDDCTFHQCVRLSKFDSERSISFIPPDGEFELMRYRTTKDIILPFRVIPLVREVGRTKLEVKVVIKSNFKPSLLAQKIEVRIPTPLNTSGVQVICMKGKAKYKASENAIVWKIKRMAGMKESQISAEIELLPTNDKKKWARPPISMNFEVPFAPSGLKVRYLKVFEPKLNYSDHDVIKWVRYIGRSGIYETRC

Row | effect of a mutation on the interaction | Variant
1 | decreasing interaction strength | MASLGLQLVGYILGLLGLLGTLVAMLLPSWKTSSYVGASIVTAVGFSKGLWMECATHSTGITQCDIYSTLLGLPADIQAAQAMMVTSSAISSLACIISVVGMRCTVFCQESRAKDRVAVAGGVFFILGGLLGFIPVAWNLHGILRDFASPAVPDSMKFEIGEALYLGIISSLFSLIAGIILCFSCSSQRNRSNYYDAYQAQPLATRSSPRPGQPPKVKSEFNSYSLTGYV [Y148A;L151A]
2 | disrupting interaction strength | MASLGLQLVGYILGLLGLLGTLVAMLLPSWKTSSYVGASIVTAVGFSKGLWMECATHSTGITQCDIASTALGLPADIQAAQAMMVTSSAISSLACIISVVGMRCTVFCQESRAKDRVAVAGGVFFILGGLLGFIPVAWNLHGILRDFASPAVPDSMKFEIGEALYLGIISSLFSLIAGIILCFSCSSQRNRSNYYDAYQAQPLATRSSPRPGQPPKVKSEFNSYSLTGYV [Y67A;L70A;Y148A;L151A]
3 | disrupting interaction strength | MASLGLQLVGYILGLLGLLGTLVAMLLPSWKTSSYVGASIVTAVGFSKGLWMECATHSTGITQCDIASTALGLPADIQAAQAMMVTSSAISSLACIISVVGMRCTVFCQESRAKDRVAVAGGVFFILGGLLGFIPVAWNLHGILRDFYSPLVPDSMKFEIGEALYLGIISSLFSLIAGIILCFSCSSQRNRSNYYDAYQAQPLATRSSPRPGQPPKVKSEFNSYSLTGYV [Y67A;L70A]

Variants of: B1
Conditions: with ap2m1_human AP2M1, Q96CW1
Remark: another data set of the same source

Row | effect of a mutation on the interaction | Variant
4 | disrupting interaction | MASLGLQLVGYILGLLGLLGTLVAMLLPSWKTSSYVGASIVTAVGFSKGLWMECATHSTGITQCDIASTALGLPADIQAAQAMMVTSSAISSLACIISVVGMRCTVFCQESRAKDRVAVAGGVFFILGGLLGFIPVAWNLHGILRDFASPAVPDSMKFEIGEALYLGIISSLFSLIAGIILCFSCSSQRNRSNYYDAYQAQPLATRSSPRPGQPPKVKSEFNSYSLTGYV [Y67A;L70A;Y148A;L151A]
